Experimental data as given in patent US6299877.

Key:
[1] = molecular target: IFN-αR1 (IFNAR1), type I interferon receptor subunit on cells (human) (UniProt P17181)
[2] = molecular target: IFN-αR2 (IFNAR2), type I interferon receptor subunit on cells (human) (UniProt P48551)

“Histidine (His)-tagged IFN-ε (IFN-ε^His), recombinant, expressed in E. coli (ligand)” gave a growth inhibition of Daudi cells, IC50 [1] of 100 µM and a growth inhibition of Daudi cells, IC50 [2] of 100 µM.
